Measurements published in publication PMC9546227, “Cysteines have a role in conformation of the UVR8 photoreceptor” (The Plant Journal, 2022).
One block for each binder: values may come before it.

Tests used:
[1] = molecular target: T1, UV … LOCUS 8 (UVR8), wild-type, purified (Arabidopsis thaliana), Q9FN03; experiment: SDS-PAGE with non-boiled samples; purified protein not exposed to UV-B; 10% gel, Coomassie stain; dimer to monomers; conditions: remark: other sources report otherwise
T1 chain: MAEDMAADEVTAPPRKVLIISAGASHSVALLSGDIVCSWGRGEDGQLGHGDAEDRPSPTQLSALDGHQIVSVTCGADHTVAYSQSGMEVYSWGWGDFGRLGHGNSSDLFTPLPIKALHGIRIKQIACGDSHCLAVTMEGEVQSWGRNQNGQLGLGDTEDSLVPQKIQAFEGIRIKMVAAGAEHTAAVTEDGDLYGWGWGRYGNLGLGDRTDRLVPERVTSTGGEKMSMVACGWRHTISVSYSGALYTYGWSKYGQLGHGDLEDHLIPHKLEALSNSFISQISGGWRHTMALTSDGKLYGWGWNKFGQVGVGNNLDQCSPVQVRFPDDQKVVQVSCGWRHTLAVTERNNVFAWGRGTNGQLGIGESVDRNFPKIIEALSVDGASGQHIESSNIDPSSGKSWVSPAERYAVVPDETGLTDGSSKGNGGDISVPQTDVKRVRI

[2] = molecular target: the molecule itself; experiment: SDS-PAGE with non-boiled samples; protein extracts of 14-day-old plants not exposed to UV-B (also after return to white light following UV-B, re-dimerization); immunoblot with anti-UVR8-C; dimer to monomers
[3] = molecular target: the molecule itself; experiment: SDS-PAGE with non-boiled samples; purified protein not exposed to UV-B; 10% gel, Coomassie stain; dimer to monomers

stoichiometry N [1]: 2
B1: UV … LOCUS 8 (UVR8), wild-type, purified, Q9FN03 1-440 (natural protein)
chain: MAEDMAADEVTAPPRKVLIISAGASHSVALLSGDIVCSWGRGEDGQLGHGDAEDRPSPTQLSALDGHQIVSVTCGADHTVAYSQSGMEVYSWGWGDFGRLGHGNSSDLFTPLPIKALHGIRIKQIACGDSHCLAVTMEGEVQSWGRNQNGQLGLGDTEDSLVPQKIQAFEGIRIKMVAAGAEHTAAVTEDGDLYGWGWGRYGNLGLGDRTDRLVPERVTSTGGEKMSMVACGWRHTISVSYSGALYTYGWSKYGQLGHGDLEDHLIPHKLEALSNSFISQISGGWRHTMALTSDGKLYGWGWNKFGQVGVGNNLDQCSPVQVRFPDDQKVVQVSCGWRHTLAVTERNNVFAWGRGTNGQLGIGESVDRNFPKIIEALSVDGASGQHIESSNIDPSSGKSWVSPAERYAVVPDETGLTDGSSKGNGGDISVPQTDVKRVRI

B2: GFP-UVR8^C231S,C335S (uvr8-1/35Spro:GFP-UVR8^C231S,C335S plants) (natural protein, Arabidopsis thaliana, UniProt Q9FN03 1-440, looked up)
chain: MAEDMAADEVTAPPRKVLIISAGASHSVALLSGDIVCSWGRGEDGQLGHGDAEDRPSPTQLSALDGHQIVSVTCGADHTVAYSQSGMEVYSWGWGDFGRLGHGNSSDLFTPLPIKALHGIRIKQIACGDSHCLAVTMEGEVQSWGRNQNGQLGLGDTEDSLVPQKIQAFEGIRIKMVAAGAEHTAAVTEDGDLYGWGWGRYGNLGLGDRTDRLVPERVTSTGGEKMSMVASGWRHTISVSYSGALYTYGWSKYGQLGHGDLEDHLIPHKLEALSNSFISQISGGWRHTMALTSDGKLYGWGWNKFGQVGVGNNLDQCSPVQVRFPDDQKVVQVSSGWRHTLAVTERNNVFAWGRGTNGQLGIGESVDRNFPKIIEALSVDGASGQHIESSNIDPSSGKSWVSPAERYAVVPDETGLTDGSSKGNGGDISVPQTDVKRVRI
notes: UVR8, Arabidopsis thaliana, with C231S and C335S; Cloned into the pEZR(K)L-C vector by the methods of Cloix et al. (2012); also called GFP-UVR8^SS; source: transgenic Arabidopsis uvr8-1/CaMV35Spro:GFP-UVR8^C231S,C335S, in protein extract
stoichiometry N [2]: 2

B3: UVR8^C231S,C335S, purified (natural protein, Arabidopsis thaliana, UniProt Q9FN03 1-440, looked up)
chain: MAEDMAADEVTAPPRKVLIISAGASHSVALLSGDIVCSWGRGEDGQLGHGDAEDRPSPTQLSALDGHQIVSVTCGADHTVAYSQSGMEVYSWGWGDFGRLGHGNSSDLFTPLPIKALHGIRIKQIACGDSHCLAVTMEGEVQSWGRNQNGQLGLGDTEDSLVPQKIQAFEGIRIKMVAAGAEHTAAVTEDGDLYGWGWGRYGNLGLGDRTDRLVPERVTSTGGEKMSMVASGWRHTISVSYSGALYTYGWSKYGQLGHGDLEDHLIPHKLEALSNSFISQISGGWRHTMALTSDGKLYGWGWNKFGQVGVGNNLDQCSPVQVRFPDDQKVVQVSSGWRHTLAVTERNNVFAWGRGTNGQLGIGESVDRNFPKIIEALSVDGASGQHIESSNIDPSSGKSWVSPAERYAVVPDETGLTDGSSKGNGGDISVPQTDVKRVRI
notes: UVR8, Arabidopsis thaliana, with C231S and C335S; also called UVR8^SS; source: E. coli, purified (as detailed by Christie et al., 2012)
stoichiometry N [3]: 2
